Residue numbers refer to the chain shown, from its start.
Assays:
Assay in all cases: fluorescence polarization
[1] = target: T1, RBM45 RRM1-2 F124A/Y165A (RRM1 analog) (Homo sapiens, UniProt Q8IUH3 23-202, F124A;Y165A)
T1 sequence: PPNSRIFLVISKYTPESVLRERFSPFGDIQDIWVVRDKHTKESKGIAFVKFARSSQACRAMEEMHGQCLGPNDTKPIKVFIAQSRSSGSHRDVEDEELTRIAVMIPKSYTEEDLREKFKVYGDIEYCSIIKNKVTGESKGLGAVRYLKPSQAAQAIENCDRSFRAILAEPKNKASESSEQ

[2] = target: T2, RRM1 analog D114A (Homo sapiens, UniProt Q8IUH3 23-202, D114A;F124A;Y165A)
T2 sequence: T1 sequence with D92A

[3] = target: T3, RRM1 analog F29A (Homo sapiens, UniProt Q8IUH3 23-202, F29A;F124A;Y165A)
T3 sequence: T1 sequence with F7A

[4] = target: T4, RRM2 analog F124A (Homo sapiens, UniProt Q8IUH3 23-202, F29A;F70A;F124A)
T4 sequence: T1 sequence with F7A, F48A, A143Y

[5] = target: T5, RRM1 analog F70A (Homo sapiens, UniProt Q8IUH3 23-202, F70A;F124A;Y165A)
T5 sequence: T1 sequence with F48A

[6] = target: T6, RRM1 analog K100A (Homo sapiens, UniProt Q8IUH3 23-202, K100A;F124A;Y165A)
T6 sequence: T1 sequence with K78A

[7] = target: T7, RRM1 analog W55A (Homo sapiens, UniProt Q8IUH3 23-202, W55A;F124A;Y165A)
T7 sequence: T1 sequence with W33A

[8] = target: T8, RBM45 RRM1-2 quadruple mutant (Homo sapiens, UniProt Q8IUH3 23-202, F29A;F70A;F124A;Y165A)
T8 sequence: T1 sequence with F7A, F48A

GGACGG (ssRNA) [GGACGG RNA]
Kd [1]: 0.788 ± 0.092 µM
Kd [2]: 1.13 µM
Kd [3]: 7.38 µM
Kd [4]: 15.6 µM
Kd [5]: 16.8 µM
Kd [6]: 4.59 µM
Kd [7]: 3.54 µM
binding signal [8]: ~150 fold decrease vs WT

Source: publication PMC7968997
